# Tests used:
# A119 = A119 (Homo sapiens (Human), UniProt P0DOX7 1-214); assay: BLI (Octet RED96), antagonist captured on biosensor, ligand in solution
# Protocol: (§1) Binding activities of individual bifunctional antagonists to human ligands were measured by biolayer interferometry (BLI) using Octet RED96 (FortéBIO, Pall Corporation, USA). Binding analysis was performed by first capturing the polypeptide bifunctional antagonists to biosensors. To measure the rate of association and dissociation, the bifunctional antagonists-captured biosensors were dipped in wells containing different concentrations of ligands (such as TNF-α, TGF-β1 and TGF-β3) diluted in 1× kinetic buffer for 10 min followed by 10-20 min in 1× kinetic buffer. Note that all the ligands tested were recombinantly produced based on their human sequences. The bifunctional polypeptide antagonists-captured sensors were also submerged in wells containing 1×kinetic buffer to allow single reference subtraction in order to compensate for natural dissociation of the captured bifunctional antagonists. The binding sensorgrams were collected using the 8-channel detection mode on the biosensor. Data were acquired and analyzed using the FortéBIO Data acquisition software v11.1 (FortéBIO, Pall Corporation, USA)
# A120 = A120 (Homo sapiens (Human), UniProt P0DOX7 1-214); assay: as above
# Protocol: as §1
binder,measurement,setting,value
"TGF-β3 (ligand, also called Transforming Growth Factor-Beta 3) ALDTNYCFRNLEENCCVRPLYIDFRQDLGWKWVHEPKGYYANFCSGPCPYLRSADTTHSTVLGLYNTLNPEASASPCCVPQDLEPLTILYYVGRTPKVEQLSNMVVKSCKCS",Kd,A119,~1 pM
same,Kd,A120,~1 pM

# From US20230391892A1 (published 2023)
